Experimental data as given in paper PMC5814911 (Nucleic Acids Research, 2017).

Experiments:
[1] = molecular target: T1, PobR (PobRFL) (Streptomyces coelicolor (cosmid StE8; M600 is the wild-type strain used)) (UniProt Q9Z4X2); assay: EMSA
T1 sequence: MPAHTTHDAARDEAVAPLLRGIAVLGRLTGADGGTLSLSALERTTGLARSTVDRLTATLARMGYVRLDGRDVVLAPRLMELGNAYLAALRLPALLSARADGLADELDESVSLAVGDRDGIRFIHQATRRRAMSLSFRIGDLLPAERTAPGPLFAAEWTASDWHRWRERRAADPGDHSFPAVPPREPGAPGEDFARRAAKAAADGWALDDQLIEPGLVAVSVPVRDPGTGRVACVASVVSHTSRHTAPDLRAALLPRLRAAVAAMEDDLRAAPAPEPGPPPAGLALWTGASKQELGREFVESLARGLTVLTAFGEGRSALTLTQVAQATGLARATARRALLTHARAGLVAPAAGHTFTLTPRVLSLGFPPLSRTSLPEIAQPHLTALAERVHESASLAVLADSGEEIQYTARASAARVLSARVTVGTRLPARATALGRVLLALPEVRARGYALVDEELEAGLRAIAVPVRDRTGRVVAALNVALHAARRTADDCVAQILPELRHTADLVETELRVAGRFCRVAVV

[2] = molecular target: PobR (product of SCO3209), full length, Streptomyces coelicolor (Streptomyces coelicolor); assay: SAXS
[3] = molecular target: PobR (product of SCO3209), full length, Streptomyces coelicolor (Streptomyces coelicolor); assay: SEC
PobR = molecular target: T2, PobR (Streptomyces coelicolor, UniProt Q9Z4X2); assay: ITC and crystal structure at […] Å; assay type: binding
T2 sequence (Q9Z4X2 1-524): T1 sequence

[4] = molecular target: T1, PobR (PobRFL) (Streptomyces coelicolor (cosmid StE8; M600 is the wild-type strain used)); assay: DNase I footprinting

**Q.** “GCATCGGTCGTTCCCTTCGATCGGCGTCGTTGCCTTGCTCGAGCCGGCAGTTGTTCGCGTCGCGTTGTCGCGTTGTCGCCTGTTCGCGTGGTGAAAATTTCTTCACCATCAACTGCGC (double strand) [118-bp pobA promoter probe]” was tested. Which binding [1] did it give?
**A.** binds

**Q.** With “PobR (product of SCO3209), full length, Streptomyces coelicolor (natural protein)” as the compound, how does the stoichiometry N [2] read?
**A.** 2

**Q.** What about the stoichiometry N [3] of the same compound?
**A.** 2

**Q.** `O=C(O)c1ccc(O)cc1` [PHB, para-hydroxybenzoate] was tested. Which Kd (PobR) did it give?
**A.** 5.8 ± 0.5 µM

**Q.** Which binding [4] does the source give for “GCATCGGTCGTTCCCTTCGATCGGCGTCGTTGCCTTGCTCGAGCCGGCAGTTGTTCGCGTCGCGTTGTCGCGTTGTCGCCTGTTCGCGTGGTGAAAATTTCTTCACCATCAACTGCGC (double strand) [118-bp pobA promoter probe, 5'-32P]” here?
**A.** binds
